Test results published in patent publication US20220259318A1 (Hoffmann-La Roche, published 2022).
“And” between values parts separate entries of the source, which are not always exact repeats. Identical values can stand only once. Like-named read-outs stand apart in the source and are kept apart here.

Experiments:
human GPRC5D [1] = molecular target: T1, human GPRC5D (human, UniProt Q9NZD1 1-345); test: cell-based or functional assay
human GPRC5D [2] = molecular target: T1, human GPRC5D; test: cell-based or functional assay; remark: listed apart in the source
human GPRC5D [3] = molecular target: T1, human GPRC5D; test: flow cytometry on NCI-H929 cells; paragraph 550 says these values were falsely calculated by a factor of 10 (too low)
Method: To measure the binding to GPRC5D, we performed a flow cytometry-based binding assay on reported multiple myeloma cell lines (Lombardi et al., Molecular characterization of human multiple myeloma cell lines by integrative genomics: insights into the biology of the disease; Genes Chromosomes Cancer. 2007 March; 46(3):226-38). The cell line NCI-H929 (ATCC® CRL-9068) was cultured in RPMI 1640 with Glutamax medium (Gibco) supplemented with 10% FBS, 1× Penicillin/Streptomycin (Gibco), 1× Sodium Pyruvate (Gibco) and 50 μM beta-Mercaptoethanol (Gibco). Jurkat-NFAT reporter cells (a CD3-expressing human acute lymphatic leukemia reporter cell line with a NFAT promoter, GloResponse Jurkat NFAT-RE-luc2P, Promega #CS176501) were cultured in RPMI 1640, containing 2 g/l Glucose, 2 g/l NaHCO₃, 10% FCS, 25 mM HEPES, 2 mM L-Glutamine, 1×NEAA, 1× Sodium-pyruvate and 200 μg/ml Hygromycin B.
Flow cytometry acquisition was performed on a custom-designed BD Biosciences Fortessa and analyzed using BD Diva. EC50 values were calculated, using GraphPad Prism software.

murine GPRC5D = molecular target: T2, murine GPRC5D (murine, UniProt Q9JIL6 1-344); test: cell ELISA on stably transfected CHO cells
T2 construct: whole, on cells
T2 sequence (looked up): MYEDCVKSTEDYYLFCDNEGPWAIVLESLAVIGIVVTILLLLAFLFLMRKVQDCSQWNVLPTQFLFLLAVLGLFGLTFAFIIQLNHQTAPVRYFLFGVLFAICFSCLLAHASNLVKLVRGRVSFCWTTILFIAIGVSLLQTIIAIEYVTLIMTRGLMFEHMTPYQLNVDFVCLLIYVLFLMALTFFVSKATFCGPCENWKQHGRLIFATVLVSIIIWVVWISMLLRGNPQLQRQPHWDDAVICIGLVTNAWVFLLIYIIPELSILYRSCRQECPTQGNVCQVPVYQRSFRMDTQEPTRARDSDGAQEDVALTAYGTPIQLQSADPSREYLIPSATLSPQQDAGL
Method: (§1) Stable transfected CHO clones expressing either human GPRCSD or cynomolgus GPRCSD or murine GPRCSD or human GPRCSA were used to analyze the binding of potential lead candidate antibodies as IgGs. In detail, 10⁴ cells (viability≥98%) were seeded into 384 well-microtiter plates (BD Poly D-Lysin, #356662, volume: 25 μl/well) using fresh culture medium. After overnight incubation at 37° C., 25 μl/well dilutions of antibodies were added (15×1:3 dilutions in 1×PBS, assay conc. starts at 30 μg/ml) to the cells for 2 hours at 4° C. After one washing step using 90 μl/well PBST (10×PBS, Roche, #11666789001+0.1% Tween 20), cells were subsequently fixed by the addition of 50 μl/well 0.05% glutaraldehyde (Sigma Cat. No: G5882 in 1×PBS) for 10 min at room temperature (RT). After three additional washing steps using 90 μl/well PBST, secondary antibodies were added for detection: for human antibodies goat anti-human Ig a chain antibody HRP conjugate (Millipore #AP502P) diluted 1:2000 in blocking buffer (1×PBS (Roche #11666789001)+2% BSA (Bovine Serum Albumin Fraction V, fatty acid free, Roche, #10735086001)+0.05% Tween 20) was used (25 μl/well). […] After incubation for 1 h at RT and three additional washing steps using 90 μl/well PBST, 25 μl/well TMB substrate was added (Roche order no. 11835033001) for 10 min and color development to final ODs was determined by measurement at 370 nm/492 nm.
(§2) Cynomolgus crossreactivity was also detected for all other antibodies but at lower levels compared to 10B10 and 07A04 (FIG. 9). No significant binding to CHO cells expressing murine GPRC5D and no binding to CHO cells expressing the human version of GPRC5A was detected (FIG. 9).

human GPRC5A = molecular target: T3, human GPRC5A (human, UniProt Q8NFJ5 1-357); test: cell ELISA on stably transfected CHO cells
T3 construct: whole, on cells; also called hu GPCR5A; GPRCSA
Method: as §1, §2

human GPRC5D [4] = molecular target: T1, human GPRC5D; test: cell ELISA, CHO cells stably expressing human GPRC5D
Method: as §1

cynomolgus GPRC5D = molecular target: T4, cynomolgus GPRC5D (cynomolgus); test: cell ELISA, CHO cells stably expressing cynomolgus GPRC5D
T4 construct: whole, on cells; also called cyno GPRC5D; CHO cy GPCR5D
Method: as §1

human GPRC5D [5] = molecular target: T1, human GPRC5D; test: cell-based or functional assay; remark: listed apart in the source
human GPRC5D [6] = molecular target: T1, human GPRC5D; test: cell-based or functional assay; remark: listed apart in the source
human GPRC5D [7] = molecular target: T1, human GPRC5D; test: cell ELISA, CHO hu GPRC5D (EC/IC50 rel)
Procedure, shortened: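 Stably transfected CHO cells seeded overnight, then incubated 2 h at 4° C with antibody IgGs in 15-point 1:3 dilutions from 30 μg/ml. Cells fixed with 0.05% glutaraldehyde; binding detected with HRP anti-human Ig and TMB, absorbance at 370/492 nm.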

human GPRC5D [8] = molecular target: T1, human GPRC5D; test: cell-based or functional assay; remark: listed apart in the source

T3 sequence (Q8NFJ5 whole entry): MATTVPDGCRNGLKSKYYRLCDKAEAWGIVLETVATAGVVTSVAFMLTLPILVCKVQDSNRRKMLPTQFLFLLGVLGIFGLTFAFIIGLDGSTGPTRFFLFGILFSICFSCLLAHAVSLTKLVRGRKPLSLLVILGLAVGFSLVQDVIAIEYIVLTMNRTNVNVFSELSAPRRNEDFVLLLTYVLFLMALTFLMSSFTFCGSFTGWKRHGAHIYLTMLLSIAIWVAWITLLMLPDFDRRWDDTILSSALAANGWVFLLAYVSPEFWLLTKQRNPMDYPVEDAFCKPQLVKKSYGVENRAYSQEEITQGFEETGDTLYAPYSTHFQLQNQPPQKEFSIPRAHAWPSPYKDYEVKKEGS
T1 sequence (Q9NZD1 whole entry): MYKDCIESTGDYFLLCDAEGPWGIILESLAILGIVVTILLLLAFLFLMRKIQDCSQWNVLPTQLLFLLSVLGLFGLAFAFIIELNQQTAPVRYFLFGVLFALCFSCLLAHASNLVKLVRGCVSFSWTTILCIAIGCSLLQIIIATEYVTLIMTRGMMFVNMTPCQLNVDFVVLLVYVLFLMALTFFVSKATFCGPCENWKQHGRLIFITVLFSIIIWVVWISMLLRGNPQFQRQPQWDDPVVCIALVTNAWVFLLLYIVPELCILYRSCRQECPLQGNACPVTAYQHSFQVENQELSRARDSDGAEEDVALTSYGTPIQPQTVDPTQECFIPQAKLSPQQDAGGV

B1: 5F11(VH1c + VL1b)-C122-TCB (P1AE6624) (bispecific antibody, human IgG1, kappa, L234A L235A)
light 1: DIVMTQSPLSLPVTPGEPASISCRSSKSLLHSNGITYVYWYLQKPGKSPQVLIYRMSNLASGVPDRFSGSGSGTDFTLKISRVEAEDVGVYHCGQLLENPYTFGQGTKLEIKRTVAAPSVFIFPPSDRKLKSGTASVVCLLNNFYPREAKVQWKVDNALQSGNSQESVTEQDSKDSTYSLSSTLTLSKADYEKHKVYACEVTHQGLSSPVTKSFNRGEC
light 2: EVQLLESGGGLVQPGGSLRLSCAASGFQFSSYAMNWVRQAPGKGLEWVSRIRSKYNNYATYYADSVKGRFTISRDDSKNTLYLQMNSLRAEDTAVYYCVRHTTFPSSYVSYYGYWGQGTLVTVSSASVAAPSVFIFPPSDEQLKSGTASVVCLLNNFYPREAKVQWKVDNALQSGNSQESVTEQDSKDSTYSLSSTLTLSKADYEKHKVYACEVTHQGLSSPVTKSFNRGEC
heavy 1: QVQLVESGGGVVQPGRSLRLSCAASGFSFSNYGMAWVRQAPGKGLEWVASISTGGGNTYYADSVKGRFTISRDNSKNTLYLQMNSLRAEDTAVYYCTRHDRGGLYWGQGTMVTVSSASTKGPSVFPLAPSSKSTSGGTAALGCLVEDYFPEPVTVSWNSGALTSGVHTFPAVLQSSGLYSLSSVVTVPSSSLGTQTYICNVNHKPSNTKVDEKVEPKSCDKTHTCPPCPAPEAAGGPSVFLFPPKPKDTLMISRTPEVTCVVVDVSHEDPEVKFNWYVDGVEVHNAKTKPREEQYNSTYRVVSVLTVLHQDWLNGKEYKCKVSNKALGAPIEKTISKAKGQPREPQVCTLPPSRDELTKNQVSLSCAVKGFYPSDIAVEWESNGQPENNYKTTPPVLDSDGSFFLVSKLTVDKSRWQQGNVFSCSVMHEALHNHYTQKSLSLSPGK
heavy 2: not shown
notes: 2+1 TCB: LC1 (anti-GPRC5D), LC2 (anti-CD3 crossed), HC1 Fc hole, HC2 Fc knob
B1 was tested, and the “AUC, activation of Jurkat-NFAT reporter cells in presence of RPMI-8226 cells” value (human GPRC5D [1]) was 881000, the “EC50 (pM), activation of Jurkat-NFAT reporter cells in presence of RPMI-8226 cells” value (human GPRC5D [1]) was 4.5 pM and the “EC50 (pM), activation of autologous T-cells (CD69 on CD8 T cells) with a primary MM sample” value (human GPRC5D [2]) was 1.06 pM. The EC50 (human GPRC5D [3]) was 0.1 nM.

B2: 10B10 IgG (antibody, V domains shown)
VH: EVQLVESGGGLVQPGRSMKLSCAASGFTFTNFYMAWVRQAPTKALEWVASINTGGGYTYYRDSVKGRFTVSRDNTRSTLYLQMDSLRSEETATYYCARHLTYYGRYYYFDYWGQGVMVTVSS
VL: DIQLTQSPHSLSASLGETVSIECLASEGISNYLAWFHQKPGKSPQLLIYYASSLQDGVPSRFSGSGSGTQYSLKISNMQPEDEGVYYCQQGYKYPLTFGSGTKLEIK
With B2 the binding result (murine GPRC5D) was “no binding (tested: assay conc. starts at 30 µg/ml)”, the binding result (human GPRC5A) was “no binding (tested: assay conc. starts at 30 µg/ml)” and the EC50 (human GPRC5D [4]) was 0.0163 µg/mL and 0.109 nM. The EC50 (cynomolgus GPRC5D) was 0.012 µg/mL and 0.08 nM.

B3: 07A04 IgG (antibody, V domains shown)
VH: QVTLKESGPGILQPSHTLSLTCSFSGFSLSTYGMGVNWIRQPSGKGLEWLASIWWNGNTYNNPSLKSRLTVSKDTSNNQAFLKVTSVDTADTATYYCVHTRGIIRGRGLFFDYWGQGVMVTVSS
VL: DVQMTQSPYNLAASPGESVSINCKASKSISKYLAWYQQKPGKANKLLIYDGSTLQSGIPSRFSGSGSGTDFTLTIRSLEPEDFGLYYCQQHNEYPLTFGSGTKLEIKR
notes: the format as tested is not certain
B3 was tested, and the binding result (murine GPRC5D) was “no binding (tested: assay conc. starts at 30 µg/ml)”, the binding result (human GPRC5A) was “no binding (tested: assay conc. starts at 30 µg/ml)” and the EC50 (human GPRC5D [4]) was 0.0243 µg/mL and 0.162 nM. The EC50 (cynomolgus GPRC5D) was 0.115 µg/mL and 0.764 nM.

B4: 5F11-IgG (antibody, V domains shown)
VH: EVQLVESGGGLVQPGRSLKLSCAASGFSFSNYGMAWVRQAATKGLEWVASISTGGGNTYYRDSVKGRFIVSRDNAKNTQYLQMDSLRSEDTATYYCTRHDRGGLYWGQGVMVTVSS
VL: DIVMTQAPLSVSVTPGESASISCRSSKSLLHSNGITYVYWYFQKPGKSPQVLIYRMSNLASGVPDRFSGSGSETDFTLKISRVEAEDVGIYHCGQLLENPYTFGAGTELELK
notes: Rat-derived variable domains, tested as IgG; also called P1AE5733 (parental); 5F11_parental
B4 was tested, and the “CAR-J2 EC50 [ng/mL] (PGLALA-CAR-J activation, L363 target cells)” value (human GPRC5D [5]) was 2.65 ng/mL, the “EC50 values of CAR-J activation” value (human GPRC5D [6]) was 2.65 ng/mL and the binding result (human GPRC5A) was “no binding (tested: assay conc. starts at 30 µg/ml)”. For the same binder, the EC50 (human GPRC5D [7]) was 0.0058 µg/mL and 0.04 nM and the EC50 (human GPRC5D [4]) was 0.0217 µg/mL and 0.144 nM.

B5: 5E11-IgG (antibody, V domains shown)
VH: ELQLEQSGGGLVQPGGSLTLSCAASGFTFSKYAMAWVRQAPTKGLEWVASISTGGVNTYYRDSVKARFTISRDNAKNTQYLQMDSLRSEDTATYYCATHTGDYFDYWGQGVMVTVSS
VL: DIVLTQSPALAVSPGQRATISCRASQSVSISGINLMNWYQQKPGQQPKLLIYHASILASGIPTRFSGSGSGTDFTLTIDPVQADDIATYYCQQTRESPLTFGSGTNLEIK
notes: Rat-derived variable domains, tested as IgG; also called P1AE5706 (parental); 5E11 parental
In the case of B5, the “CAR-J2 EC50 [ng/mL] (PGLALA-CAR-J activation, L363 target cells)” value (human GPRC5D [8]) is reported as 3.9 ng/mL, the “EC50 values of CAR-J activation” value (human GPRC5D [6]) is reported as 3.9 ng/mL and the binding result (human GPRC5A) is reported as “no binding (tested: assay conc. starts at 30 µg/ml)”. The EC50 (human GPRC5D [7]) was 0.0104 µg/mL and 0.07 nM and the EC50 (human GPRC5D [4]) was 0.0296 µg/mL and 0.198 nM.
